We go through 19 variants from the RNAGym collection of RNA variant scans (doi:10.1073/pnas.2313332121).

B1: TPR 5TU (parent)
chain: GGAUCUUCUCGAUCUAACAAAAAAGACAAAUCUGCCACAAAGCUUGAGAGCAUCUUCGGAUGCAGAGGCGGCAGCCUUCGGUGGCGCGAUAGCGCCAACGUUCUCAACUAUGACACGCAAAACGCGUGCUCCGUUGAAUGGAGUUUAUCAUG

Fewer inactive variants are shown than the library holds. Where only a bound is given, the exact number is not on record here.

The variants in the series derive from B1. Put plainly: polymerase ribozyme fitness, log enrichment relative to wild type (log ratio); higher = more active; in vitro selection for triplet polymerase activity. The essentials:
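After PCR construction and transcription, each subunit's mutant library from a heterodimeric triplet polymerase ribozyme was annealed with a biotinylated primer, the partner subunit and triplets. Incubation was frozen, at −7 °C, and extended constructs were gel-excised, bound to streptavidin beads and amplified by RT-PCR, in one selection round done in triplicate. Fitness is the logarithm of a genotype's enrichment divided by that of the wild type, from inverse-variance-weighted replicate averages of Illumina-sequenced inputs and outputs. The base of the logarithm is 2, and genotypes needed ≥10 input reads and ≥1 read per output.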
For the variant GGAUCUUCUCGAUCUAACAAAAAAGACAAAUCUGCCACAAAGCUUGAGGGCAUCUUCGGAUGCAGAGGCGGCAGCCUUCGGUGGUGCGAUAGCGCCAACGUUCUCAACUAUGACACGCAAAACGCGUGCUCCGUUGAAUGGAGUUUAUCAUG [A49G C85U], the “polymerase ribozyme fitness (log ratio)” value was -0.982.

On to GGAUCUUCUCGAUCUAACAAAAAAGACAAAUCUGCCACAAAGCUUGAGGGCAUCUUCGGAUGCAGAGGCGGCAGCCUUCGGUGGAGCGAUAGCGCCAACGUUCUCAACUAUGACACGCAAAACGCGUGCUCCGUUGAAUGGAGUUUAUCAUG [A49G C85A], for which the “polymerase ribozyme fitness (log ratio)” value is -2.52.

As to GGAUCUUCUCGAUCUAACAAAAAAGACAAAUCUGCCACAAAGCUUGAGCGCAUCUUCGGAUGCAGAGGCGGCAGCCUUCGGUGGCGCUAUAGCGCCAACGUUCUCUACUAUGACACGCAAAACGCGUGCUCCGUUGAAUGGAGUUUAUCAUG [A49C G88U A106U], the “polymerase ribozyme fitness (log ratio)” value is no more than -4.2. In the case of GGAUCUUCUCGAUCUAACAAAAAAGACAAAUCUGCCACAAAGCUUGAGCGCAUCUUCGGAUGCAGAGGCUGCAGCCUUCGGUGGCGCGAUAGCGCCUACGUUCUCAGCUAUGACACGCAAAACGCGUUCUCCGUUAAAAGGAGUUUAUCAUG [A49C G70U A97U A107G G128U G136A U139A] it was no more than -4.2; in that of GGAUCUUCUCGAUCUAACAAAAAAGACAAAUCUGCCACAAAGCUUGAGCGCAUCUUCGGAUGCAGAGGCGCCAGCCUUCGGUGGCGCGAUAGCGCCAACGUUCUCAACUAUGACACGCAAAACGCGUGCUCCGUUGAAUGGAGUUUAUCAUG [A49C G71C], no more than -4.2. In the case of GGAUCUUCUCGAUCUAACAAAAAAGACAAAUCUGCCACAAAGCUUGAGGGCAUCUUCGGAUGCAGAGGCGGCAGCCUUCGGUGGCGCGAUAGCGCCAACGUUCUCAACUAUGACUCGCAAAACGCGUGCUCCGUUGAAUGGAGUUUAUCAUG [A49G A115U] it was -2.35. For GGAUCUUCUCGAUCUAACAAAAAAGACAAAUCUGCCACAAAGCUUGAGGGCAUCUUCGGAUGCAGAGGCGGCAGCCUUCGGUGGCGAGAUAGCGCCAACGUUCUCAACUAUGACACGCAAAACGCAUGCUCCGUUGAAUGGAGUUUAUCAUG [A49G C87A G126A] the value was no more than -4.2. For GGAUCUUCUCGAUCUAACAAAAAAGACAAAUCUGCCACAAAGCUUGAGGGCAUCUUCGGAUGCAGAGGCGGCAGCCUUCGGUGGCGGGAUAGCGCCAACGUUCUCAACUAUGACACGCAAAACGCGUGCUCCGUUGAAUGGAGUUUAUCAUG [A49G C87G], the “polymerase ribozyme fitness (log ratio)” value is -4.02. In the case of GGAUCUUCUCGAUCUAACAAAAAAGACAAAUCUGCCACAAAGCUUGAGCGCAUCUUCGGAAGCAGAGGCGGCAGCCUUCGGUGGCACGUUAGCGCCAACGUUCUCAACUAUGACACGCAAAACGCGUGCUCCGUUGAUUGGAGUUUAUCAUG [A49C U61A G86A A89U A138U] it was no more than -4.2; in that of GGAUCUUCUCGAUCUAACAAAAAAGACAAAUCUGCCACAAAGCUUGAGGGCAUCUUCGGAUGCAGAGGCGGCAGCCUUCGGUGGCGCGAUUGCGCCAACGUUCUCAACUAUGACACGCAAAACUCGUGCUCCGUUGAAUGCAGUUUAGCAUG [A49G A91U G124U G141C U148G], no more than -4.2. In the case of GGAUCUUCUCGAUCUAACAAAAAAGACAAAUCUGCCACAAAGCUUGAGGGCAUCUUCGGUUGCAGAGGCGGCAGCCUCCGGUGGCGCGAUAGCGACAACGUUCUCAACUAUGACACGCAAAACGCGUGCUCCGUUGAAUGGCGUUUAUCAUG [A49G A60U U78C C95A A142C] it was no more than -4.2. In the case of GGAUCUUCUCGAUCUAACAAAAAAGACAAAUCUGCCACAAAGCUUGAGGGGAUCUUCGGAUGCAGAGGCGGCAGCCUCCGGUGGCGCGAUAGCGCGAACGUUCUCAACUAUGACACGCAAAACGCGUGCUCCGUUAAAUGGAGUUUAUCAUG [A49G C51G U78C C96G G136A] it was no more than -4.2; in that of GGAUCUUCUCGAUCUAACAAAAAAGACAAAUCUGCCACAAAGCUUGAGGCCAUCUUCGGAUGCAGAGGGGGCAGCCUUCGGUGGCGCGAUAGCGCCAACGUUGUCAACUAUGACACGCAAAACGCGUGCUCCGUUUAAUGGAGUUUAUCAUG [A49G G50C C69G C103G G136U], no more than -4.2. Turning to GGAUCUUCUCGAUCUAACAAAAAAGACAAAUCUGCCACAAAGCUUGAGCGCAUCUUCGGAUGCAGAGGCGGCAGCCUUCGGUCGCGCGACAGCGCCAACGUUCUCAACUAUGACACGCAAAGCGCGUGCUCCGUUGAAUGGAGUUUAUCAUG [A49C G83C U90C A122G], the “polymerase ribozyme fitness (log ratio)” value is no more than -4.2.

As for GGAUCUUCUCGAUCUAACAAAAAAGACAAAUCUGCCACAAAGCUUGAGGGCAUCUUCGGAUGCAGAGGCGGCAGCCUUCGGUCGCGCGAUAGCGCCAACGUUCUCAACUAUGACACGCAAAACGCGUGCUCCGUUGAAUGGAGUUUAUCAUG [A49G G83C], the “polymerase ribozyme fitness (log ratio)” value is -1.21. As for GGAUCUUCUCGAUCUAACAAAAAAGACAAAUCUGCCACAAAGCUUGAGCGCAUCUUCGGAUGCAGAGGCGGCAGCCUUCGUUGGCGCGAUAGGGCCAACGUUCUCAACUAUGACACGCAAAACGCGUGCUCCGUUGAAUGGAGUUUAUCAUG [A49C G81U C93G], the “polymerase ribozyme fitness (log ratio)” value is no more than -4.2. For the variant GGAUCUUCUCGAUCUAACAAAAAAGACAAAUCUGCCACAAAGCUUGAGCGCAUCUUCGGAUGCAGAGGCGGCAGCCUUCGGUGGCGCGAUAGCGCCAACGUUCUCAACUAUGACACGCAAAACGCGUGCUCCGUUGAAUGGAGUUUAACAUG [A49C U148A], the “polymerase ribozyme fitness (log ratio)” value is no more than -4.2. Regarding GGAUCUUCUCGAUCUAACAAAAAAGACAAAUCUGCCACAAAGCUUGAGGGCAUCUUCGGAUGCAGAGGCGGCAGCCUUCGGUGGCGCGAUAGAGCCAACGUUCUCAACUAUGACACGCAAAACGCGUGCUCCGUUGAAUGGAGUUUAUCAUG [A49G C93A], the “polymerase ribozyme fitness (log ratio)” value is -3.6.

GGAUCUUCUCGAUCUAACAAAAAAGACAAAUCUGCCACAAAGCUUGAGGGCGUCCUCGGAUGCAGAGGCGGCAGCCUUCGGUGACGCGAUCGCGCCAAGGGUCUCAACUAUGACACGCAAAACGCGUGCUCCGUUGAAUGGAGUUUAUCAUG [A49G A52G U55C G84A A91C C99G U101G]: the “polymerase ribozyme fitness (log ratio)” value was no more than -4.2.
